Values of other authors, collected in article PMC6933782 (ACS Omega, 2019).

Conditions: ref 26 (Jagoda et al., 2015)

Question: For “^18F-labeled RSA: ^18F-labeled rat serum albumin (RSA), literature, ref 26”, which “retention of uptake in the heart and peripheral vasculature” value (PET, up to stated time postinjection) is on record?
Answer: up to 2.5 h

Question: What about the “uptake in PET” value of the same substance?
Answer: uptake in the heart and peripheral vasculature
